Reference: paper PMC7269092

Target: NLuc-NS2B-E66stop (DENV2)
Assay: split reporter

“MBP-NS3 (from UniProt P29990 1476-2093) (enzyme)” showed an IC50 of 2500 nM.
